The results in this text go back to the DeepSol protein solubility set.

The nature of the data set: soluble on expression in E. coli; label from the status in PepcDB or PDB records.
Regarding “MKEKIITYLEEKGKSSVDDLASSLDMAGAQKFPSLIKEISKLESKGKLRFEQDGTISLRKKKEKKDQVTVTGIFRANKAGFGFVSIDEAEEDLFIGRNDVGHAVDGDTVEVAIKKVANRLKGTAAEARVVKIVEHSLKAVVGRFVLDDEKPPYIGYIKSKNQKITQKIYIKKEPIVLDGTEIIKVAIEKYPTRRYDYFVASVEDVIGHQDDVGIDVLEVLESMDIVSEFPDAVLKEAQSVPDAPSEKDLIGRVDLRKEITFTIDGADAKDLDDAVHVKLLDNGNFELGVHIADVSYYVKEGSALDGEALARGTSVYVTDRVVPMLPERLSNGICSLNPNLDRLTQSAIMEIDKHGRVLHYQITQTVINTSFRMTYSDVNAIIAGDKELTEQYDKIVPSIHYMVTLHKILEKMRERRGALNFDTSEAKILVNDKGFPMDIVLRQRGLAERMIESFMLAANECVAEHFAKKNLPFIYRIHEEPKAEKLQKFMDYASIFGVSIQGTASKISQTALQDFMKKIEGQPGSDVLSMMLLRSMQQARYSEYNHGHYGLAAQYYTHFTSPIRRYPDLLVHRLVREYDKANSEKVEHFAQIIPEIASQTSSLERRAIDAERVVEAMKKAEYMEEYVGQEFTGVVSSVVKFGLFVELPNTIEGLIHMTTLPEFYQFNERTLSLQGEKSGKVFRVGQSIKVKVLKADKETGDIDFAYLPSDFDIIEKLSRSKKEKPRPSRRSGDSKTKANKRSKRSALSQKKKKKPFYKEAVKKGGKHGKGSRKRRRSK”, the “soluble on expression in E. coli” value is recorded as “soluble”. For “MKELHTSELVEVSGGKFHIFAQGGGNLGKKDMVAVGKIGASYSPNNSGVEFSVSKQFGYVQGLGVQFSKPTFGISKKW” the value was “not soluble”; for “MKERLEHYSTSSIYSGFEVYLPLVLQTITDVIIAENIKSKKETGFKLYEHFTSRIKSEASMIEKCQRKQLPLTSKSALKIIKDSIGIRIICGFIDDIYRMVDLLKSIPGMSVNTEKDYILNAKPNGYRSYHLILELETHFPDILGEKKGCYFIEVQLRTIAQDSWASLEHQMKYKHQVANAEMITRELKRCADELASCDVTMQTIRQLIQETTEEE”, “not soluble”. For “MKESLKDRIRLWKRLYVNAFENALNAIPNVKGVLLAYNTNIDAIKYLDADDLEKRVTEKGKEKVFEIIENPPEKISSIEELLGGILRSIKLGKAMEWFVESEEVRRYLREWGWDELRIGGQAGIMANLLGGVYRIPTIVHVPQNPKLQAELFVDGPIYVPVFEGNKLKLVHPKDAIAEEEELIHYIYEFPRGFQVFDVQAPRENRFIANADDYNARVYMRREFREGFEEITRNVELAIISGLQVLKEYYPDGTTYKDVLDRVESHLNILNRYNVKSHFEFAYTANRRVREALVELLPKFTSVGLNEVELASIMEIIGDEELAKEVLEGHIFSVIDAMNVLMDETGIERIHFHTYGYYLALTQYRGEEVRDALLFASLAAAAKAMKGNLERIEQIRDALSVPTNERAIVLEEELEKEFTEFENGLIDMVDRQLAFVPTKIVASPKSTVGIGDTISSSAFVSEFGMRKR” the value was “soluble”. Regarding “MKEYIAFDIGGTQIKYGIVSEIGRVLKRQTVATEIHLGGEQIIQKLIYVSKKIMNEHTITGIGISTAGIVDINKGIVTGGADHIPGYSTIPIIDRLQEILKVPVSIDNDVNCAAFGEKWNGSGREKDNFIMLTLGTGIGGAIFIDGKLYRGHSFSAGEWGNMLIEEKTFEEVASISGLIRLVSKYKGKGKWNGKRIFELYDKGDREVAQAVGIFFKHLAIGISNLAYIFNPETIIIGGGITDRGNEFLKEVKEEVSKYLNQEIYNNCEIELAQNGNCAGMIGAIYHFLHHHK”, the “soluble on expression in E. coli” value is given as “not soluble”. With “MKEYRLTDWLPTTKKEVELRGWDELDVILFSGDAYVDHPSFGAAVIGRILEAEGLKVAIIPQPNWRDDLRDFRKLGRPRLFFGISAGSMDSMVNKYTANKRLRSEDAYTPDGRPDMRPEYPSIVYSQILKRLYPDVPVILGSIEASLRRLSHYDYWQDKVQKSILCDSGADLLIYGMGEKPIVELTRKMKELLPAEDASLTAGELKKIAGTIPQTAYLCRATEWTPAADDIQLYSHEECLADKKKQASNFRHIEEESNKYAASRITQEVDNKVVVVNPPYPPMSQEELDHSYDLPYTRLPHPKYKGKRIPAYDMIKFSVNIHRGCFGGCAFCTISAHQGKFIVSRSKKSILNEVKEVMQLPDFKGYLSDLGGPSANMYQMKGKDEAICKKCKRPSCIHPKVCPNLNSDHCPLLDIYKAVDAIPGIKKSFIGSGVRYDLLLHQSKDAATNRSTAEYTRELIVNHVSGRLKVAPEHTSDRVLSIMRKPSFEQFETFKKIFDRINREENLRQQLIPYFISSHPGCKEEDMAELAVITKRLDFHLEQVQDFTPTPMTVATEAWYSGFHPYTLEPVFSAKTQREKLAQRQFFFWYKPEERKNILNELRRIGRQDLIDKLYGKRNK”, the “soluble on expression in E. coli” value was “not soluble”.

For “MKFDKPAGENPIDQLKVVGRPHDRIDGPLKTTGTARYAYEWHEEAPNAAYGYIVGSAIAKGRLTALDTDAAQKAPGVLAVITASNAGALGKGDKNTARLLGGPTIEHYHQAIALVVAETFEQARAAASLVQAHYRRNKGAYSLADEKQAVNQPPEDTPDKNVGDFDGAFTSAAVKIDATYTTPDQSHMAMEPHASMAVWDGNKLTLWTSNQMIDWCRTDLAKTLKVPVENVRIISPYIGGGFGGKLFLRSDALLAALAARAVKRPVKVMLPRPSIPNNTTHRPATLQHLRIGADQSGKITAISHESWSGNLPGGTPETAVQQSELLYAGANRHTGLRLATLDLPEGNAMRAPGEAPGLMALEIAIDELAEKAGIDPVEFRILNDTQVDPADPTRCFSRRQLIECLRTGADKFGWKQRNATPGQVRDGEWLVGHGVAAGFRNNLLEKSGARVHLEQNGTVTVETDMTDIGTGSYTILAQTAAEMLGVPLEQVAVHLGDSSFPVSAGSGGQWGANTSTSGVYAACMKLREMIASAVGFDPEQSQFADGKITNGTRSATLHEATAGGRLTAEESIEFGTLSKEYQQSTFAGHFVEVGVHSATGEVRVRRMLAVCAAGRILNPKTARSQVIGAMTMGMGAALMEELAVDDRLGYFVNHDMAGYEVPVHADIPKQEVIFLDDTDPISSPMKAKGVGELGLCGVSAAIANAVYNATGIRVRDYPITLDKLLDKLPDVV”, the “soluble on expression in E. coli” value is reported as “not soluble”.

Regarding “MKFDPTSPSLNIMLANPRGFCAGVDRAISIVERALELFSPPIYVRHEVVHNRYVVQNLKDRGAVFVEELDQVPDNNIVIFSAHGVSQAVRAEAKARGLRVFDATCPLVTKVHLQVTRASRKGIECILIGHAGHPEVEGTMGQYDNPNGGVYLIESPADVETLEVRDPNNLCFVTQTTLSVDDTLDIISALLKRFPSIEGPRKDDICYATQNRQDAVRNLSADVDLLIVVGSKNSSNSNRLRELALKTGTQSYLVDTADDIDSSWFENITKVAVTAGASAPEVLVQQVVQAIAKLAPSVVTEVEGRKEDTVFAVPAELR”, the “soluble on expression in E. coli” value was “soluble”. Regarding “MKFKELSPSTYAEEFIRSKILVEEDGTAIKSQRELSADLGVSRNAIKYALKRLQYDGDIRIKERQGIEINKKRDINLLSMEPMSKELKQAEMHIKHISSEIIKTPDSLVDFFGNATELAEIKRIRLDDKDVVSFEISYLDNRKFEDIASVNFNECSLYQILENRYGKLPIYGYENITCVLANESLATKLNVKINTPLYQVDSYNYSDDDKAVEHTAQFLPANKIKYHFKAKNIFDYQEDDDDDII”, the “soluble on expression in E. coli” value is “not soluble”. With “MKFKLFLGSSFFGVATLLIACGTGRFDQIDDGKIKLAVVTSPSAASSLQTLLDQYNNTKAPADYPVEVVSLDSTGSYTKGKFDTQKRLAAKDKNNFYN”, the “soluble on expression in E. coli” value is “not soluble”. For “MKFLTFVNRVDWWLNVKKLLMGNEAIAYGALEAGVSFATGYPGTPSTEVIETIARLKPEVFAEWAPNEKVALEEAAGVSYAGLRSLVTMKCVGLNVAADPLMSLAYSGVEGGLVILVADDPGPHTSQTEQDDRYYGKLALLPVLEPYDPQEAHDLIIYAYELSEKYKVPIIFRTTTRVNHTTADVEVGEFKELKREPKFKKDIERYVRASMEGNRKRHKWLNETLKRIEEEFNTLRFNWIEGEGRVGIIVEGAPYNYVKEVVPQIEEDFKILKLSTPHPLPRKLVVEFLRSVDVALVVEEGAPFLEEEIKVVAYEEGLNVPIYGKRTGHLPLEGELTPRLVRNAILKLLGKEREEVKLPKEVEEAKALAPKRPPVMCPGCPHRGTYRALLDALRELGYGKFDIPIHGDIGCYALSLLPPLEAIWTEFVMGASISLANGQSVAMGKKIVATIGDSTFFHNGIQPLIDAVYKDLDVLVIILDNRTTAMTGHQPHPGTGGSETGRKFREIDIESVVRGIGVKYVKTVDPYNLKETKEAIKEAMKVKGPAVIIAKRECVIPVIRRGEIGEIPVVVEDRCTGCKACILLTGCPALVYEPEKKKVRIDPLICTGCGVCNQLCPFDAI”, the “soluble on expression in E. coli” value is “not soluble”. Regarding “MKFPGQRKSKHYFPVHARDPLVIQAQENKKMSRTHIIGIDQTLVDIEAKVDSDLIERYGLSKGHSLVIDDHAAEALYNELKEQRLITNEYAGGTIGNTLHNYSVLADDRSTLLGVMSQDIKIGSYGYRYLCNTSSRMDLNYLQGVDGAIGRCFALITEDGERTFAISEGQMNQLRPDSIPEKIFASASALVITAYLVRCKEGDPMPEATMRAIEYAKKYDVPVVLTLGTKFVIQDDPKFWQEFLRDHVTVVAMNEDEALALTGESDPLAASDKALDWVDLVLCTAGPVGLFMAGYTEDSAKRETSLPLLPGSVPEFNRYEFSRPARKESCINPIRVYSHISPYMGGPEKIKNTNGAGDAALSALLHDMAANKYHKENVPNSSKHQHEFLTYSSFSQVCKYSNRASYEVLAQHSPRLSRGLPEREDSLEEAYWER”, the “soluble on expression in E. coli” value is “not soluble”. With “MKFPGQRKSKHYFPVHTRDPLVNQINQTPKLERTHLIGVGQTIVDIEAKVDDDFLNRHQLSKGHSLVLEESKAEALYKELFERNLISHEYPGDTIGNTLHNYSVLADSKSILLGVMSEDIKIGSYAYRYLCNTTSRMDLDYLQPVQGPIGRCYTLISEDGERTFAINEGDMNQLCPTHVPEHIFEKASALVISSYLVRGKEGDPMMDAVRKAIDCAKSHNVPVVLTLGTKYVIEGKAEWWQTFLKENVTVVAMNEEEAEALTGEKDPLLAADKALEWVDLVLCTAGPIGLYMAGFTEESIKRETSKPLLPGNIPEFNRFEYSRPMVKALCKKPIKVSSHIAPYMGGPVEIKNTNGAGDAALSALLHDMAANYYHKENVPNSSKHDAEYLTYSSFSQICKYSNRASYEVLTQHSPRLSKSMPEREDCLEEAYWER”, the “soluble on expression in E. coli” value is “not soluble”. In the case of “MKHLVICIALLTVGACCFAQQKKVASHKAASGNPVFQGWYADPEGIIYDDTYWIFPTWSDLYENQTFFDCFSSKDLVNWTKHASVLDTTAVKWAKKAMWAPSVIRKNGKYYIFFGANDVHEGEIGGIGVAVSDRPEGPYKDLLGKPLINEIVNGAQPIDQFVYNDNGHYYMYYGGWGHCNVVQLNDDFTGLVPFEDGTVYKEVTPENYVEGPFMFKKDGKYYFMWSEGGWGGPDYSVAYAISDSPFGPFKRVAKILQQDPSVATSAGHHSLLHAPGTDDYYIVYHRRPLNDNARDHRVTCIDKMTFDKDGFINPVKMTFEGVPAQKIKKSKKK”, the “soluble on expression in E. coli” value is given as “not soluble”. Take “MKIAIVTDSTAYLPERIKDHPNLFVIPIPVILDGKIYNEGIDIEADEYYALLNNSKEFPTTSQPALGEVLELYKSIAEQGYDTIISIHLSSGISGFVHTLHGLTDEIPGVALYPYDSKITSMPMGHMVEAALDLTEEKASLEEIFAKLDLIRDNTYAYLIVEDLNNLVRGGRLTNGAALIAGLLKIKPILTFEDGKIVLFEKIRSTKKAFARAEKIIGERNAGIEAPVKLYVIHANNRIVAEKEQAKLQKLYPNAEIEIGHFGPVIGTHLGEKAIGLAISAQ”: the “soluble on expression in E. coli” value was “not soluble”. In the case of “MKIAVLGATGRAGSAIVAEARRRGHEVLAVVRDPQKAADRLGATVATLVKEPLVLTEADLDSVDAVVDALSVPWGSGRGYLHLDFATHLVSLLRNSDTLAVFILGSASLAMPGADHPMILDFPESAASQPWYDGALYQYYEYQFLQMNANVNWIGISPSEAFPSGPATSYVAGKDTLLVGEDGQSHITTGNMALAILDQLEHPTAIRDRIVVRLEHHHHHH”, the “soluble on expression in E. coli” value is “not soluble”.
